In the DeepSol protein solubility set:

Test: soluble on expression in E. coli; label from the status in PepcDB or PDB records
In the case of “MSLEVISLSEKKGFNFNIIKNDPLDGHKGTNIGSISLDNIAPVFIDVANKEAFIDIGGMHARAKVEKGVKWITDKAAVEGDEAKEYWLCWVTTERNEQGPYYAGLTACYLLVNKAIRRGYKSMPEHVNMMDKSMKHHIIIDQIGDENKAILKDFLMNHDEGMWKHSSDALHQAFNEGHHHHHH”, the “soluble on expression in E. coli” value is reported as “soluble”.
For “MSLEWHFSLKEPHVLLFLPFEKYALPYPDPSQSWLSFGLTEIPVPEWTKNLEIITPWRPDFLKFANAQFRCSPEINQTCTHDGALLQLSKYRGFNQNCFLDLLERVKPGGWIIIGGNKTSGADSMMKWVKKIVPITNKFSKNHGLVFWIQVPQQIEKQNTAQLRSPPLTFENKFQTTSGMFSHGRIDPGSAVLASHMCKTISGKTADFGAGWGFLSHAALERSEKLTALDLYEADYNALKAAKQHLKHITTSLPIHFYWHDLVHEPITNLYDTIISNPPFHTQQTTDVSLGQHFIINAAKYLKPGGNLLLVANRHLPYETLLKRLFRTVLIYEKAHGFKVIEAYREGHHHHHH”, the “soluble on expression in E. coli” value was “soluble”.
With “MSLEYNDVVEAVISALKKAHTELPEDVVTAIKKAYDSEENDIAKRNLEAILKNIEAAKKLGVPMCQDTGIPVFFVEVGRELCLDFDLKEAIVEGVRKATAEIPLRPNAVHPITRENSGDNTGLGIPQINVELVKGDELRMVVMPKGAGSENVSALKMMLPTQVDKIKDFVVETVKNAGGKPCPPIFVGVGVGSTFDGAAKLAKKALLRNVLEMNDFELELLEAVNELGIGAMGLGGKYTALAVLVEFGHCHTASLPVAVNIQCWANRRAEVVLREGGSHHHHHH” the “soluble on expression in E. coli” value was “soluble”.
For “MSLGDQLKIIQDGQSFAFSLDTLLLAYWAKEAIKNRSKVVELCSGNAAASLYMAAFNKAHYDDVELQEDIVSKARRSVELNDMQDRITVHQGNVKDAGSFLRKDSYDVVVVNPPYFKAPAGHKLNPDRSKAIARHELEINLEEIIAVSAGLLKMKGKMFMVHRPERLGEIINYGFKHDLAVKTVQPFVSRRGQDANLVIVEAVRSGKGDGLVLRDAIEVHEADGSNTPAIKEILEAKEGHHHHHH”, the “soluble on expression in E. coli” value was “soluble”.
In the case of “MSLGDSEIYVSLDIGTASVKVIIAEMADDRLNIIGVGNVESSGIKKGIIIDIHKTVESIKKAIEQAERMVGVEISQVIVGVVSSQVHLEACRGIVAVGSENREITDEDVWNVMDAAQVVPLSPEREIINTIPDQFVVDGLTGITDPRGMIGVRLEMEGTLITGSKTILHNTLRCVERAGLEISDIALQPLAEASISLSEDDKEFGTALVNVGAGTTTVSVFEQGRLTYTGVIPVGGDNITKDLSLGLNTSTANADRVKLDHGYAFYDDASPDEVFAIDVIGSDQKQHFTQVEVADIIEARMEEIFQLVVEELTRVGKTHLPGGYVLTGGSMAIPGAIDLAGKTLAAHVRLAIPDYIGVREPSFTTAVGLIKYAYQMVELEGRDVSSEGHHHHHH”, the “soluble on expression in E. coli” value is reported as “soluble”.
For “MSLGEIWYGGTIYTMREENEKVDAIYVENGMIVDVGSKKELENRYAAVTLYDLEDKTMIPGLVDSHMHLIGHGERLLRLDLSNCTSYSEVLTLVRKRVEEAPKGSWIIGEGWNENNFTDTKDVHARDLDEISKEHPILLKRVCRHVTWVNSYILQEANITEKAEDPKGGKIGRDSSNMLTGLLYEQGQELIKHVQPEIDEAYLQSALQTAIKDCWQYGLVGGHTEDLNYYGGFRKTHNAFSHVIKEMPFKAHLLVHHEVAQERKEYENEHYIEFGAMKIFSDGSFGGRTALLSEPYEDAKETNGVAIFSREELAELVKKARDLHMPVAIHTIGDLSLEYVIDALELYPPAEGLRDRIIHCQLAREELIERMKNLQAIIDIQPVFVSSDFPSVIEKLGEHRLRYAYAWKTLLEAGLHCNGGSDAPIEQVNPFLGIYSAVTRRSFIDGVCYMPEERLTAYEAVSLFTTGSAYAIGKEEKRGQITKGYEADFTILDRNIFEIEAEEIKEVQAEMTVIDGKVVYRKDAEGHHHHHH”, the “soluble on expression in E. coli” value was “soluble”.
With “MSLGITDSGLSEKQVEKLVRASRPNNPSPDIWARAIKESLEELGQPVDKEHVSAVCAVISQVSAFSISPKNSRMASILRKKIEAAESNEVLRLLIETRLDQTASNGRTFRENIDSIQSELDFEKWYDEFTSASVTKPILLVLKKDASDLITTAGSMQVSVKFAEEYPKKPRNAGGGSVRDMLYTCKGGVFYGTAYLLDYKHNYDDWKYVFADFNAGHYTSRNAGFQKMLGRLTHRMVDTDGDLLSYENGNATPSVTYVTFINFLKDKGIGFDEKKVMKDFQQEKSYDFEETWSYKTLSELYKKKYGHPIYAVLPDIPLNSPKFVSKNLSTKWFAERVKSRYNHCMRTSIEGHHHHHH” the “soluble on expression in E. coli” value was “soluble”.
For “MSLGKYFGTDGVRGEANVELTPELAFKLGRFGGYVLSQHEPDRPRVFVARDTRISGELLESALVAGLLSVGIEVYKLGVLATPGVSYLVRTEQASAGVMISASHNPALDNGIKFFGGDGFKLADEQEAEIEALLDAKEDDLPRPSAQGLGMVVDYPEGLRKYEKFLVSTGSDLEGMKIAIDAANGAASYSARQVFLDLNADITVIGEEPDGLNINDGVGSTHPEQLQNLVKGSDFVIGLAFDGDSDRLIAVDENGEIVDGDKIMYIIGKYLSEKGRLSKNTIVTTVMSNLGFHKALDRENINKKITAVGDRYVVEEMRRSGYNLGGEQSGHVIIMDYNTTGDGQLTAIQLTKVMKETGKTLSELANEVTIYPQKLVNIYVKNDMKNKAMEVPMIAQIIEKMEAEMAGNGRILVRPSGTEPLLRVMAEAPSTEEVNYYVDTIAKVVKTEIGIEGHHHHHH”, the “soluble on expression in E. coli” value was “soluble”.
With “MSLGLHACIDPIAVAHNLEVLRQRLGVGVDGPRIWATVKADAYGHGLHNVLPGLRAADGIAVRHLHEAHQCRRVGWSGPIMVYAGLTHEREAALLTLQQLHLVITDMTQLEWLPGKPLYSCAPWIWLRYIGATRLGGLDASEYRRAYARCRELQQHGALRGVGHLNHYANAASVGDLEREHADFEACIRGLPGPVSTCNSAAACVLPTMAARTDWVRPGLALYGVSPIPGRAGRDLGLRPAMTLRSTLCATQNLPAGASVGYGCTFVADQPMALGLVRCGYGDGYPHNPRASFPVQVDGVLTRTVGRISMDLMAVDLRPIPAAARGAPVVLWGSPQLPVEHIAHAAGTIAAELLTGLTARVPLMRADHAALLREGHHHHHH” the “soluble on expression in E. coli” value was “soluble”.
For “MSLGLHITDQQVHRYMSQRRHHTQAVAAAKAGISERSARRIDKNPQLPSQKKRERHWRTRPDPLEQIWPRVEELLKIAGILSVTIFETVQDEFGEAAVPDGVRRTLERRIARWRALNGGEKEIFFPQHHEIGRQGLLDFTVADDLHVTIAGQRFDHRLFHFRLASSGWEDSAVVLGGESFTALSEHLQDALWKLGGVPAELRSDSLSAAYKNLDADAQRDFTRNYEALCRHYGMTPTRNNKGVAHENGSIEAPNGHLKRRMDQALRRRSSRDFPSIEDYRRFVDQEVAKQNRRRARLMDDERRVLKSLPPKRTTDFTLVSADVTRNSTISVDRVTYSVPSRLIGYRLHAHLYDDRVEFFLGPDQVMTADRVRVKHAERGHNIDFRHFIGNLKRKPQALRYLVYRNALFPTHAYTRAWQALDAALDARQACRDMVALLDIAANGNCVDALALRIEAALDRGKLPNVAKLKSEFLPTVRSRVDVTIPPPDFAGYNHLLANAQEGHHHHHH”, the “soluble on expression in E. coli” value was “not soluble”.
In the case of “MSLGLINVLIADDQTLMREGLKTIIDLEDDMNVTGLAKNGKEVLDQIPCLLPHVILMDIQMPIMNGIECLKVVKRIYPHINVLMLTTFEDDDYIIESLVGGANGFLLKDLNYDQLIYSIRQSVDGQMLIPNSIAVKLAKQLSKYNELTEVDLQIEKLKKEGLHFSERERQIASLLAQGLTNKKIAEKLYITEGTVKNYISEIYSKIGIRDRMQASTYLRELGINDEGHHHHHH”, the “soluble on expression in E. coli” value is reported as “soluble”.
In the case of “MSLGLLNCLTGAALPLMESDVTSYVSGYALGLTASLTYGNLEAQPFQGLFVYPIDEYSTVVGFEAVIADRVVTIQLRDKAKLDRSHLDIQPATVTGNFPEEESPIAPGKVTLDEDLERVLFVVNLGTIAPMENVTVFISTSSELPTLPSGAVRVLLPAICAPTVPPSCTHRFGSSSPQPQGKDPHCFGTQTKDSYNRLCLATLLDTKVTNPMEYEFKFQLEIRGPCLLAGVESPTHEIRADAAPSAHSAKSIIITLAKKHTFDRPVEILLHPSEPHMPHVLVEKGDMTLGEYDQHLKGKADFIRGTKKDNSAERKTEVIRKRLHKDIPHHSVIMLNFCPDLQSVQPNPRKAHGEFIFLIDRSNSMSKTNIQCIKEAMLVALKSLMPACFFNIIGFGSTFKAVFASSRIYNEENLTMACDCIQRMQADMGGTNMLSPLKWVLRQPLRRGHPRLLFLITDGSVNNTGKVLELVRNHASSTRCYSFGIGPTVCYRLVKGLASVSKGSAEFLMEGERLQPKMVKSLKKAMAPVLSDVTVEWVFPETTEALISPVSTSSLFPGERLMGYGIVCDASLYISNSRSEGHHHHHH”, the “soluble on expression in E. coli” value is reported as “not soluble”.
With “MSLGLSFFSKHLPIQEGQPWALKTPADIISTVEFNHTGELLATGDKGGRVVIFQREPESKNAPHSQGEYDVYSTFQSHEPEFDYLKSLEIEEKINKIKWLPQQNAAHSLLSTNDKTIKLWKITERDKRPEGYNLKDEEGKLKDLSTVTSLQVPVLKPMDLMVEVSPRRIFANGHTYHINSISVNSDCETYMSADDLRINLWHLAITDRSFNIVDIKPANMEDLTEVITASEFHPHHCNLFVYSSSKGSLRLCDMRAAALCDKHSKLFEEPEDPSNRSFFSEIISSVSDVKFSHSGRYMLTRDYLTVKVWDLNMEARPIETYQVHDYLRSKLCSLYENDCIFDKFECAWNGSDSVIMTGAYNNFFRMFDRNTKRDVTLEASRESSKPRAVLKPRRVCVGGKRRRDDISVDSLDFTKKILHTAWHPAENIIAIAATNNLYIFQDKVNSDMHEGHHHHHH” the “soluble on expression in E. coli” value was “not soluble”.
For “MSLGNNLKKKNGADSLYYTTRTFATTKEVIQANKFVNSEKLNEIAKKTDCTYLKSPAGIFTQATLPINKIYEELSHDTINAVKLTFNSYNQPDNGKFSMKAPTYVLLLREKERQSFFEENKLTDNITSYLAVHNAIISNKPTTNQYVFTNLTRLINACVNEKQEAKKKAGDSWNEAAWEAANPDWNKVVLIPVLVQYDSSSNKNMISIQHDLQPGYVKLEGGPDGTKLKLEVTYTNFNGKEGHHHHHH”, the “soluble on expression in E. coli” value was “soluble”.
For “MSLGPPSIARTVTPNASIPKTPEDISILPVNDEPGYLQDSKTEQNYPELADAVKSQTSQTCSEEHKYVIMIDAGSTGSRVHIYKFDVCTSPPTLLDEKFDMLEPGLSSFDTDSVGAANSLDPLLKVAMNYVPIKARSCTPVAVKATAGLRLLGDAKSSKILSAVRDHLEKDYPFPVVEGDGVSIMGGDEEGVFAWITTNYLLGNIGANGPKLPTAAVFDLGGGSTQIVFEPTFPINEKMVDGEHKFDLKFGDENYTLYQFSHLGYGLKEGRNKVNSVLVENALKDGKILKGDNTKTHQLSSPCLPPKVNATNEKVTLESKETYTIDFIGPDEPSGAQCRFLTDEILNKDAQCQSPPCSFNGVHQPSLVRTFKESNDIYIFSYFYDRTRPLGMPLSFTLNELNDLARIVCKGEETWNSVFSGIAGSLDELESDSHFCLDLSFQVSLLHTGYDIPLQRELRTGKKIANKEIGWCLGASLPLLKADNWKCKIQSAEGHHHHHH”, the “soluble on expression in E. coli” value was “soluble”.
With “MSLGPTSKAISRNVRSVKRPRRAPRPVVSTQAMNKLSNVTLSAEQEKLRERVLSFMRSNLSQYKSDWKHPAMFVIQGDAGTGKSVILNSLFNEIQKLSQFSPSSEDILHGTHNYLVVNHPEMLKLYIRISDSFKYISKSSLERPTSLINNLQKRKVMADVVIVDEAHLLATSKDAFKRFYGENHLKDLMSLCKVLVLVYDDKQALRMGSYWDEGSNNGATLKDFYNEIPPKSRDWYTLKQQFRVAAPQNVLNWIDQISVAGKIPPIESVLSKGNADCADDKIKNFDFKIWDDCGAMYEAIKEKDRQYGQCRMLSTYDFPYRLDGKDYYVECGDNFKVRWDRYTPREVTPWSERCDTIDEVGSVYTIQGFDLNYAGVILGRSIGYDAANDCIKLRPELYDDRAGFTKKKNIHNAEDVKQKIIMNSINVLLTRGVRGLYVYAYDPELRERLLRPSKEGHHHHHH” the “soluble on expression in E. coli” value was “soluble”.
